From US20140274782A1, “AFFINITY REAGENTS AND METHODS FOR DETECTION, PURIFICATION, AND PROTEOMIC ANALYSIS OF METHYLATED PROTEINS” (The Board of Trustees of the Leland Stanford Junior …, priority 2013, published 2014) come the findings set out here.

One assay has as its system 3×MBT domain of L3MBTL1. The assay can be described thus: Triple SILAC pull-down, 3xMBT/3xMBTD355N ratio (cytoplasmic, nuclear and chromatin fractions of 293T cells).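 For all read-outs here: proteins quantified with MaxQuant, requiring at least two unique peptides and quantification in both label directions, normalized to the mean of proteins from a digested loading control.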 It is filed as binding, human. The conditions noted are these: SILAC ratio, pull-down 3xMBT vs 3xMBTD355N; for 3xMBT/D355N UNC Heavy: experiment with UNC0638 in heavy SILAC media; for 3xMBT/D355N UNC Light: experiment with UNC0638 in light SILAC media.

The target of another assay is T1, G9a and GLP (Homo sapiens, UniProt Q96KQ7+Q9H9B1).
T1 sequence (Q96KQ7 2-1210 limits assumed): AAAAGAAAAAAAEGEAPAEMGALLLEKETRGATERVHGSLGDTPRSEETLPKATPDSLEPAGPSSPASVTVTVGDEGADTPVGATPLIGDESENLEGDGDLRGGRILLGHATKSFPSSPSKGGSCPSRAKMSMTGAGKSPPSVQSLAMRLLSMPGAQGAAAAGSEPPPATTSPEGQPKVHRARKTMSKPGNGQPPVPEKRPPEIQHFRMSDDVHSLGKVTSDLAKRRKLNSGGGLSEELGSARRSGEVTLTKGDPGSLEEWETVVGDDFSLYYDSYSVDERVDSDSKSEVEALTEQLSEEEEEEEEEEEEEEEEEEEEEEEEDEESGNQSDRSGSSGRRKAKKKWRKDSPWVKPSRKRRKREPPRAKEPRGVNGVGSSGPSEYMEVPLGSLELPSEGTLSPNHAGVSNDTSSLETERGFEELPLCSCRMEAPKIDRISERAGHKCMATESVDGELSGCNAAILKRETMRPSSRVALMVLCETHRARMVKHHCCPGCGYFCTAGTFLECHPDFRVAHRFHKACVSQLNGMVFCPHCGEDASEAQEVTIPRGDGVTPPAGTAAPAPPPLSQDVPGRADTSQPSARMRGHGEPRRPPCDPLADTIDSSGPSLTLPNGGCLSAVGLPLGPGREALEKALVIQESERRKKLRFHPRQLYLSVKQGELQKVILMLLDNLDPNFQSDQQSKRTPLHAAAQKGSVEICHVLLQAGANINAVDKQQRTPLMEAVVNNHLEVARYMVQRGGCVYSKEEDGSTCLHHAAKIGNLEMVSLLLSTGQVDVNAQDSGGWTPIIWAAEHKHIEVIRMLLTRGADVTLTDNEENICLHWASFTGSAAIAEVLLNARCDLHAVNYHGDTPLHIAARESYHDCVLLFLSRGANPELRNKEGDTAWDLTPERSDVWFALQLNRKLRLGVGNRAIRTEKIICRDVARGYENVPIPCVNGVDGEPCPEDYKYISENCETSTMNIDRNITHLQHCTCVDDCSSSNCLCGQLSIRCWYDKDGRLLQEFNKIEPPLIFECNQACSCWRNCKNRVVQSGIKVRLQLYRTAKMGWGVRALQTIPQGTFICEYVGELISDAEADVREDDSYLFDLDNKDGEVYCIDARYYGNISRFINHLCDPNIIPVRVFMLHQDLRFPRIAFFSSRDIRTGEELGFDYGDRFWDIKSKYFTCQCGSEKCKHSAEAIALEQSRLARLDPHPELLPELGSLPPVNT
T1 sequence (Q9H9B1 2-1298 limits assumed): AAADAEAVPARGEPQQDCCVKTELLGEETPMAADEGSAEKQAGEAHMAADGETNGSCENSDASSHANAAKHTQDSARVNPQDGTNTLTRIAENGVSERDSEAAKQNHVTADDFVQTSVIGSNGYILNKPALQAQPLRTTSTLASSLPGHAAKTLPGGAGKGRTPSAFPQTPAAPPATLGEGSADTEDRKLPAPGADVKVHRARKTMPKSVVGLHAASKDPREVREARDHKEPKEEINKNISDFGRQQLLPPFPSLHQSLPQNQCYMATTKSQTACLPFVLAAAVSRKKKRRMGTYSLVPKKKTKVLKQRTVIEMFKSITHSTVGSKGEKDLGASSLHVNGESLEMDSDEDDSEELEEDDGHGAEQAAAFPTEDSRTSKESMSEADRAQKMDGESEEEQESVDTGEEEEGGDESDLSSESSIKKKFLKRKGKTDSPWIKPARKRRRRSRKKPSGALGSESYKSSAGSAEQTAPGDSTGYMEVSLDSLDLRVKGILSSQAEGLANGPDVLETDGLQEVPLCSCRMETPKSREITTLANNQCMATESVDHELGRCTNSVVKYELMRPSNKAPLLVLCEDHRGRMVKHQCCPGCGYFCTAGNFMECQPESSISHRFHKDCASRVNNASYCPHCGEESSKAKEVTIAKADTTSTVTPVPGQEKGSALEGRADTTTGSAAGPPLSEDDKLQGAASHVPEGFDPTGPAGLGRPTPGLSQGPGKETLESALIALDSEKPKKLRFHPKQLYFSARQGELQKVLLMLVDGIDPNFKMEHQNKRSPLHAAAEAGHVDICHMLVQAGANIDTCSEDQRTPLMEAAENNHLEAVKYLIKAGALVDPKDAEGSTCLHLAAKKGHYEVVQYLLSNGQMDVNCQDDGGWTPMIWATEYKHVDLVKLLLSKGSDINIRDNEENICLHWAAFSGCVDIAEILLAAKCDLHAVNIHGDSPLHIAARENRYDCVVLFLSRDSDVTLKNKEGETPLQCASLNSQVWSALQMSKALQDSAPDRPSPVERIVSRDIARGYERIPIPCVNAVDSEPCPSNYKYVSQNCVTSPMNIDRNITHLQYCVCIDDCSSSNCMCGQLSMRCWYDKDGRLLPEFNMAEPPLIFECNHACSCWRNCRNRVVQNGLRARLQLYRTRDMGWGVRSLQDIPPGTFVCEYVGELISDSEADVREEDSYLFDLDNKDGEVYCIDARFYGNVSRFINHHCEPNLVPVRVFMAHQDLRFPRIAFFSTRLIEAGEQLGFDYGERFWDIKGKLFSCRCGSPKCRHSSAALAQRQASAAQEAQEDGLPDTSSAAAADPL
As to the kind of experiment: Triple SILAC pull-down after UNC0638 treatment of 293T cells, DMSO/UNC0638 ratio of protein captured by 3×MBT.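 For all read-outs here: mass spectrometry (Q-Exactive) SILAC quantitation, DMSO/UNC0638 ratio computed after subtracting 3×MBTD355N mutant pull-down background, only proteins with at least twofold 3×MBT over mutant signal considered.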 In kind it is cell-based. Further details: endogenous in cells; host or cells: HEK 293T. The settings on record: for Relative to UNC0638 UNC Heavy / Relative to UNC0638 UNC Light: SILAC ratio DMSO/UNC0638 of protein pulled down with 3xMBT; for Relative to UNC0638 UNC Heavy: UNC0638 in heavy SILAC media; for Relative to UNC0638 UNC Light: UNC0638 in light SILAC media; for Relative to UNC0638 Average: average of UNC Light and UNC Heavy experiments.

B1: KHSRP (protein, UniProt Q92945 2-711, looked up)
Far upstream element-binding …: SDYSTGGPPPGPPPPAGGGGGAGGAGGGPPPGPPGAGDRGGGGPGGGGPGGGSAGGPSQPPGGGGPGIRKDAFADAVQRARQIAAKIGGDAATTVNNSTPDFGFGGQKRQLEDGDQPESKKLASQGDSISSQLGPIHPPPRTSMTEEYRVPDGMVGLIIGRGGEQINKIQQDSGCKVQISPDSGGLPERSVSLTGAPESVQKAKMMLDDIVSRGRGGPPGQFHDNANGGQNGTVQEIMIPAGKAGLVIGKGGETIKQLQERAGVKMILIQDGSQNTNVDKPLRIIGDPYKVQQACEMVMDILRERDQGGFGDRNEYGSRIGGGIDVPVPRHSVGVVIGRSGEMIKKIQNDAGVRIQFKQDDGTGPEKIAHIMGPPDRCEHAARIINDLLQSLRSGPPGPPGGPGMPPGGRGRGRGQGNWGPPGGEMTFSIPTHKCGLVIGRGGENVKAINQQTGAFVEISRQLPPNGDPNFKLFIIRGSPQQIDHAKQLIEEKIEGPLCPVGPGPGGPGPAGPMGPFNPGPFNQGPPGAPPHAGGPPPHQYPPQGWGNTYPQWQPPAPHDPSKAAAAAADPNAAWAAYYSHYYQQPPGPVPGPAPAPAAPPAQGEPPQPPPTGQSDYTKAWEEYYKKIGQQPQQPGAPPQQDYTKAWEEYYKKQAQVATGGGPGAPPGSQPDYSAAWAEYYRQQAAYYGQTPGPGGPQPPPTQQGQQQAQ
As for B1, in the assay on 3×MBT domain of L3MBTL1, the “3xMBT/D355N UNC Heavy” value came to 3.34 log base 2 and the “3xMBT/D355N UNC Light” value amounted to 3.18 log base 2. Besides, in the assay with G9a and GLP, the “Relative to UNC0638 UNC Heavy” value stood at 0.17 log base 2, the “Relative to UNC0638 UNC Light” value is given as 0.16 log base 2 and the “Relative to UNC0638 Average” value was 0.16 log base 2.

B2: SYNCRIP (protein, UniProt O60506 2-623, looked up)
Heterogeneous nuclear …: ATEHVNGNGTEEPMDTTSAVIHSENFQTLLDAGLPQKVAEKLDEIYVAGLVAHSDLDERAIEALKEFNEDGALAVLQQFKDSDLSHVQNKSAFLCGVMKTYRQREKQGTKVADSSKGPDEAKIKALLERTGYTLDVTTGQRKYGGPPPDSVYSGQQPSVGTEIFVGKIPRDLFEDELVPLFEKAGPIWDLRLMMDPLTGLNRGYAFVTFCTKEAAQEAVKLYNNHEIRSGKHIGVCISVANNRLFVGSIPKSKTKEQILEEFSKVTEGLTDVILYHQPDDKKKNRGFCFLEYEDHKTAAQARRRLMSGKVKVWGNVGTVEWADPIEDPDPEVMAKVKVLFVRNLANTVTEEILEKAFSQFGKLERVKKLKDYAFIHFDERDGAVKAMEEMNGKDLEGENIEIVFAKPPDQKRKERKAQRQAAKNQMYDDYYYYGPPHMPPPTRGRGRGGRGGYGYPPDYYGYEDYYDYYGYDYHNYRGGYEDPYYGYEDFQVGARGRGGRGARGAAPSRGRGAAPPRGRAGYSQRGGPGSARGVRGARGGAQQQRGRGVRGARGGRGGNVGGKRKADGYNQPDSKRRQTNNQNWGSQPIAQQPLQGGDHSGNYGYKSENQEFYQDTFGQQWK
With B2, in the assay with 3×MBT domain of L3MBTL1, the “3xMBT/D355N UNC Heavy” value is on record as 2.28 log base 2 and the “3xMBT/D355N UNC Light” value was 3.48 log base 2. Besides, in the assay with G9a and GLP, the “Relative to UNC0638 UNC Heavy” value is listed as 0.14 log base 2, the “Relative to UNC0638 UNC Light” value is recorded as 0.17 log base 2 and the “Relative to UNC0638 Average” value was 0.15 log base 2.

B3: CPSF1 (protein, UniProt Q10570 1-1443, looked up)
Cleavage and polyadenylation …: MYAVYKQAHPPTGLEFSMYCNFFNNSERNLVVAGTSQLYVYRLNRDAEALTKNDRSTEGKAHREKLELAASFSFFGNVMSMASVQLAGAKRDALLLSFKDAKLSVVEYDPGTHDLKTLSLHYFEEPELRDGFVQNVHTPRVRVDPDGRCAAMLVYGTRLVVLPFRRESLAEEHEGLVGEGQRSSFLPSYIIDVRALDEKLLNIIDLQFLHGYYEPTLLILFEPNQTWPGRVAVRQDTCSIVAISLNITQKVHPVIWSLTSLPFDCTQALAVPKPIGGVVVFAVNSLLYLNQSVPPYGVALNSLTTGTTAFPLRTQEGVRITLDCAQATFISYDKMVISLKGGEIYVLTLITDGMRSVRAFHFDKAAASVLTTSMVTMEPGYLFLGSRLGNSLLLKYTEKLQEPPASAVREAADKEEPPSKKKRVDATAGWSAAGKSVPQDEVDEIEVYGSEAQSGTQLATYSFEVCDSILNIGPCANAAVGEPAFLSEEFQNSPEPDLEIVVCSGHGKNGALSVLQKSIRPQVVTTFELPGCYDMWTVIAPVRKEEEDNPKGEGTEQEPSTTPEADDDGRRHGFLILSREDSTMILQTGQEIMELDTSGFATQGPTVFAGNIGDNRYIVQVSPLGIRLLEGVNQLHFIPVDLGAPIVQCAVADPYVVIMSAEGHVTMFLLKSDSYGGRHHRLALHKPPLHHQSKVITLCLYRDLSGMFTTESRLGGARDELGGRSGPEAEGLGSETSPTVDDEEEMLYGDSGSLFSPSKEEARRSSQPPADRDPAPFRAEPTHWCLLVRENGTMEIYQLPDWRLVFLVKNFPVGQRVLVDSSFGQPTTQGEARREEATRQGELPLVKEVLLVALGSRQSRPYLLVHVDQELLIYEAFPHDSQLGQGNLKVRFKKVPHNINFREKKPKPSKKKAEGGGAEEGAGARGRVARFRYFEDIYGYSGVFICGPSPHWLLVTGRGALRLHPMAIDGPVDSFAPFHNVNCPRGFLYFNRQGELRISVLPAYLSYDAPWPVRKIPLRCTAHYVAYHVESKVYAVATSTNTPCARIPRMTGEEKEFETIERDERYIHPQQEAFSIQLISPVSWEAIPNARIELQEWEHVTCMKTVSLRSEETVSGLKGYVAAGTCLMQGEEVTCRGRILIMDVIEVVPEPGQPLTKNKFKVLYEKEQKGPVTALCHCNGHLVSAIGQKIFLWSLRASELTGMAFIDTQLYIHQMISVKNFILAADVMKSISLLRYQEESKTLSLVSRDAKPLEVYSVDFMVDNAQLGFLVSDRDRNLMVYMYLPEAKESFGGMRLLRRADFHVGAHVNTFWRTPCRGATEGLSKKSVVWENKHITWFATLDGGIGLLLPMQEKTYRRLLMLQNALTTMLPHHAGLNPRAFRMLHVDRRTLQNAVRNVLDGELLNRYLYLSTMERSELAKKIGTTPDIILDDLLETDRVTAHF
As to B3, in the assay with 3×MBT domain of L3MBTL1, the “3xMBT/D355N UNC Heavy” value is given as 2.44 log base 2 and the “3xMBT/D355N UNC Light” value amounted to 3.15 log base 2. In the assay with G9a and GLP, the “Relative to UNC0638 UNC Heavy” value worked out at 0.17 log base 2, the “Relative to UNC0638 UNC Light” value is 0.15 log base 2 and the “Relative to UNC0638 Average” value stood at 0.16 log base 2.
